Test results as given in US20230057263A1 (CYTOMX THERAPEUTICS, published 2023).
No end group written: not given here. *: point of attachment. Biotin = O=C1N[C@H]2[C@H](CS[C@H]2CCCCC(=O)*)N1; code X = not defined here

Assays:
[1] = target: T1, (H2N-KEFSELEQSGYYVCYPRGSNPEDA-OH) vCD3e #p3-BSA (conjugated to BSA); assay: Luminex bead assay [Cont.]
T1 construct: also called control peptide #p3
T1 peptide: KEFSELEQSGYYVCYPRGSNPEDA
Description: (§1) A set of experiments was performed to map the epitope recognized by the anti-CD3ε antibodies. In these experiments, the anti-CD3ε antibodies were assessed for binding to a collection of overlapping 15-mer peptides spanning amino acids 1-27 of human CD3ε protein using a Luminex bead assay. Control CD3 proteins, control peptides, or the test peptides were immobilized on Luminex beads and incubated with a panel of anti-CD3 antibodies. Binding of the anti-CD3 antibodies to the peptide/protein immobilized on the Luminex bead was detected by R-Phycoerythrin conjugated secondary antibody.
(§2) Recombinant CD3 proteins (human CD3d/e heterodimer and cynomolgus CD3-epsilon (Sinobiological)) and control peptides (#p1, #p2, and #p3) were conjugated to Luminex beads using standard EDC/Sulfo-NHS chemistry. The 15-mer test peptides were synthesized as biotinylated peptides at JPT Peptide Technologies Gmbh and were immobilized on streptavidin-conjugated Luminex beads that were made using standard EDC/Sulfo-NHS chemistry and streptavidin (Invitrogen Cat. No. 434301 lot 1626028A). The Luminex beads with immobilized peptides or reagents were incubated with 50 ul of a panel of anti-CD3 antibodies (1 ug/ml) for one hour at room temperature, washed two times, incubated with mixture of anti-human and anti-mouse IgG-RPE (Jackson Immunoresearch 109-116-097 and Southern Biotech 1030-09, respectively) for 30 mins at RT, washed three times, and analyzed in the Luminex instrument to assess the level of bound anti-CD3 antibodies.

B X GNEEMGGITQTPYKV [2] = target: T2, B X GNEEMGGITQTPYKV (reading uncertain); assay: Luminex bead assay [Cont.]
T2 construct: row 4 of the chart; also called biotinylated 15-mer, residues 3-17
T2 peptide: {Biotin-code X}-GNEEMGGITQTPYKV
Description: as §1, §2

B X NEEMGGITQTPYKVS [3] = target: T3, B X NEEMGGITQTPYKVS (reading uncertain); assay: Luminex bead assay [Cont.]
T3 construct: row 5 of the chart; also called biotinylated 15-mer, residues 4-18
T3 peptide: {Biotin-code X}-NEEMGGITQTPYKVS
Description: as §1, §2

B X EMGGITQTPYKVSIS = target: T4, B X EMGGITQTPYKVSIS (reading uncertain); assay: Luminex bead assay [Cont.]
T4 construct: row 7 of the chart; also called biotinylated 15-mer, residues 6-20
T4 peptide: {Biotin-code X}-EMGGITQTPYKVSIS
Description: as §1, §2

B X GITQTPYKVSISGTT [4] = target: T5, B X GITQTPYKVSISGTT (reading uncertain); assay: Luminex bead assay [Cont.]
T5 construct: row 10 of the chart; also called biotinylated 15-mer, residues 9-23
T5 peptide: {Biotin-code X}-GITQTPYKVSISGTT
Description: as §1, §2

B X ITQTPYKVSISGTTV = target: T6, B X ITQTPYKVSISGTTV (reading uncertain); assay: Luminex bead assay [Cont.]
T6 construct: row 11 of the chart; also called biotinylated 15-mer, residues 10-24
T6 peptide: {Biotin-code X}-ITQTPYKVSISGTTV
Description: as §1, §2

B X TPYKVSISGTTVILT [5] = target: T7, B X TPYKVSISGTTVILT (reading uncertain); assay: Luminex bead assay [Cont.]
T7 construct: row 14 of the chart; also called biotinylated 15-mer, residues 13-27
T7 peptide: {Biotin-code X}-TPYKVSISGTTVILT
Description: as §1, §2

BSA alone [6] = target: T8, BSA alone (bovine, UniProt P02769); assay: Luminex bead assay [Cont.]
T8 construct: carrier protein without peptide
T8 sequence (P02769 25-607 limits assumed): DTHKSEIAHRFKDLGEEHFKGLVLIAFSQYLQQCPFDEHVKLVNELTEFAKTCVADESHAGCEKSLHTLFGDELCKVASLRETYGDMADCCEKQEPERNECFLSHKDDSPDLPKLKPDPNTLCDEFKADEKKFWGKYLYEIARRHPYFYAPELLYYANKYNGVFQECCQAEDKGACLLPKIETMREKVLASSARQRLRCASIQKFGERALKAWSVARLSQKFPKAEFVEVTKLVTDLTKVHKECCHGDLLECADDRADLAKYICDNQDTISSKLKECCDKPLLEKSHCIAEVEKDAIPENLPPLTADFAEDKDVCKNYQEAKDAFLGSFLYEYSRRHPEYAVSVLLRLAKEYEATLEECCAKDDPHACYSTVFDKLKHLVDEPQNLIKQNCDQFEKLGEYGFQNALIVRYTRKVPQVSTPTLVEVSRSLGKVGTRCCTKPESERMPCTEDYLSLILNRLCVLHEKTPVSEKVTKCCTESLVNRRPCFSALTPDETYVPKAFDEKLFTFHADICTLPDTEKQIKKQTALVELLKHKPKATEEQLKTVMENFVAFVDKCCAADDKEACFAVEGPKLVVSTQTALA
Description: as §1, §2

human CD3 epsilon (CD3ε) = target: T9, human CD3 epsilon (CD3ε) (human, UniProt P07766 23-207); assay: flow cytometry on human T cells
T9 construct: Present on donor human T cells as part of the TCR-CD3 complex; also called CD3ε on human T cells
Description: (§3) In these experiments, human or cynomolgus T cells were incubated with an anti-CD3ε antibody and binding was assessed by flow cytometry.
(§4) Briefly, donor T cells from either human or cynomolgus donors were resuspended in FACS buffer containing 0.1% sodium azide and aliquoted in 100 μL volumes. For incubation, 100 μL aliquots of donor T cells were mixed with 50 μL of antibodies diluted in FACS buffer containing 0.1% sodium azide. The cells were then washed twice with FACS buffer containing sodium azide. The bound antibody was detected by incubating cells for 60 minutes with a 1:200 dilution of SAV-RPE (Invitrogen Cat No. SA10044, Lot. 1542820A) or 1:100 dilution of goat-anti-Mouse Fcγ-RPE (Jackson Cat. No. 115-116-071, Lot. 108668, diluted in 0.2% goat serum). The cells were washed, fixed, and analyzed with an Accuri Flow Cytometer.
(§5) Treatment with OKT3, SP34-2, and diL2K antibodies were used as positive controls for T cell binding. […] Treatment with OKT3, SP34-2, and diL2K antibodies were used as controls for T cell binding with only SP34-2 binding to cynomolgus T cells, as expected.

cynomolgus CD3-epsilon = target: T10, cynomolgus CD3-epsilon (cynomolgus, UniProt Q95LI5 22-198); assay: flow cytometry on cynomolgus T cells
T10 construct: whole, on cells; also called CD3ε on cynomolgus T cells / PBMCs
T10 sequence (Q95LI5 22-198): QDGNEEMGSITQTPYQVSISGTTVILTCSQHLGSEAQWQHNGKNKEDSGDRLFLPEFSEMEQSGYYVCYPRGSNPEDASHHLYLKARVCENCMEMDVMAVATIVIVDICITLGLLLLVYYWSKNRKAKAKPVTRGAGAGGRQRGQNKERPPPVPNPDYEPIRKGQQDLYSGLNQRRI
Description: as §3, §4, §5

B X GNEEMGGITQTPYKV [7] = target: T2, B X GNEEMGGITQTPYKV; assay: Luminex bead assay, 1 ug/ml antibody [Cont.]
Description: as §1, §2

B X NEEMGGITQTPYKVS [8] = target: T3, B X NEEMGGITQTPYKVS; assay: Luminex bead assay, 1 ug/ml antibody [Cont.]
Description: as §1, §2

B X GGITQTPYKVSISGT = target: T11, B X GGITQTPYKVSISGT (reading uncertain); assay: Luminex bead assay, 1 ug/ml antibody [Cont.]
T11 construct: row 9 of the chart; also called biotinylated 15-mer, residues 8-22
T11 peptide: {Biotin-code X}-GGITQTPYKVSISGT
Description: as §1, §2

B X GITQTPYKVSISGTT [9] = target: T5, B X GITQTPYKVSISGTT; assay: Luminex bead assay, 1 ug/ml antibody [Cont.]
Description: as §1, §2

B X TPYKVSISGTTVILT [10] = target: T7, B X TPYKVSISGTTVILT; assay: Luminex bead assay, 1 ug/ml antibody [Cont.]
Description: as §1, §2

B X QDGNEEAGGITQTP = target: T12, B X QDGNEEAGGITQTP (reading uncertain); assay: Luminex bead assay, 1 ug/ml antibody [Cont.]
T12 construct: row 21 of the chart; 14 residues; also called alanine-scan peptide M7A
T12 peptide: {Biotin-code X}-QDGNEEAGGITQTP
Description: as §1, §2

B X QDGNEEMAGITQTP = target: T13, B X QDGNEEMAGITQTP (reading uncertain); assay: Luminex bead assay, 1 ug/ml antibody [Cont.]
T13 construct: row 22 of the chart; 14 residues; also called alanine-scan peptide G8A
T13 peptide: {Biotin-code X}-QDGNEEMAGITQTP
Description: as §1, §2

B X QDGNEEMGAITQTP = target: T14, B X QDGNEEMGAITQTP (reading uncertain); assay: Luminex bead assay, 1 ug/ml antibody [Cont.]
T14 construct: row 23 of the chart; 14 residues; also called alanine-scan peptide G9A
T14 peptide: {Biotin-code X}-QDGNEEMGAITQTP
Description: as §1, §2

BSA alone [11] = target: T8, BSA alone; assay: Luminex bead assay, 1 ug/ml antibody [Cont.]
Description: as §1, §2

- binding result [1]: no binding (tested: 1 ug/ml)
- binding result (B X GNEEMGGITQTPYKV [2]): no binding (tested: 1 ug/ml)
- binding result (B X NEEMGGITQTPYKVS [3]): no binding (tested: 1 ug/ml)
- binding result (B X EMGGITQTPYKVSIS): no binding (tested: 1 ug/ml)
- binding result (B X GITQTPYKVSISGTT [4]): no binding (tested: 1 ug/ml)
- binding result (B X ITQTPYKVSISGTTV): no binding (tested: 1 ug/ml)
- binding result (B X TPYKVSISGTTVILT [5]): no binding (tested: 1 ug/ml)
- binding result (BSA alone [6]): no binding (tested: 1 ug/ml)
- EC50 (read off the curve) (human CD3 epsilon (CD3ε)): ~0.06 nM
- EC50 (read off the curve) (cynomolgus CD3-epsilon): ~0.07 nM
- Luminex signal (B X GNEEMGGITQTPYKV [7]): 44.5
- Luminex signal (B X NEEMGGITQTPYKVS [8]): 40.5
- Luminex signal (B X GGITQTPYKVSISGT): 29.5
- Luminex signal (B X GITQTPYKVSISGTT [9]): 43
- Luminex signal (B X TPYKVSISGTTVILT [10]): 31
- Luminex signal (B X QDGNEEAGGITQTP): 2580
- Luminex signal (B X QDGNEEMAGITQTP): 2510
- Luminex signal (B X QDGNEEMGAITQTP): 2660
- Luminex signal (BSA alone [11]): 420
B1: 6d59 (antibody, V domains shown)
VH: QVHLVESGGGVVQPGRSLRLSCAASGFKFRSYGMHWVRQAPGKGLEWVAIIWYDGSKRYYADSVKGRFTISRDNSKNTLYLQMSSLRAEDTAVYYCARDLITGTTDYWGQGTLVTVSS
VL: DVVMTQSPLSLPVTLGQPASISCRSSRSLVYSDGNTHLIWFQQRPGQSPRRLIYRVSNRVSGVPDRFSGSGSGTDFTLKISRVEAEDVGVYYCLQGAHWPYTFGQGTKLEIKR
notes: also called 6d59.1; VCD3-6d59.1
